T1: HisFLAG-PSF full length (UniProt P23246 1-707)
T1 construct: PSF (SFPQ), full length; pet15b with an inserted FLAG tag; also called PSF-FL; full length His-tagged PSF; source: E. coli Rosetta(DE3)pLysS, purified (Ni-NTA, SEC); not shown: His6, N-terminal, kept; FLAG, N-terminal, kept
T1 sequence (looked up): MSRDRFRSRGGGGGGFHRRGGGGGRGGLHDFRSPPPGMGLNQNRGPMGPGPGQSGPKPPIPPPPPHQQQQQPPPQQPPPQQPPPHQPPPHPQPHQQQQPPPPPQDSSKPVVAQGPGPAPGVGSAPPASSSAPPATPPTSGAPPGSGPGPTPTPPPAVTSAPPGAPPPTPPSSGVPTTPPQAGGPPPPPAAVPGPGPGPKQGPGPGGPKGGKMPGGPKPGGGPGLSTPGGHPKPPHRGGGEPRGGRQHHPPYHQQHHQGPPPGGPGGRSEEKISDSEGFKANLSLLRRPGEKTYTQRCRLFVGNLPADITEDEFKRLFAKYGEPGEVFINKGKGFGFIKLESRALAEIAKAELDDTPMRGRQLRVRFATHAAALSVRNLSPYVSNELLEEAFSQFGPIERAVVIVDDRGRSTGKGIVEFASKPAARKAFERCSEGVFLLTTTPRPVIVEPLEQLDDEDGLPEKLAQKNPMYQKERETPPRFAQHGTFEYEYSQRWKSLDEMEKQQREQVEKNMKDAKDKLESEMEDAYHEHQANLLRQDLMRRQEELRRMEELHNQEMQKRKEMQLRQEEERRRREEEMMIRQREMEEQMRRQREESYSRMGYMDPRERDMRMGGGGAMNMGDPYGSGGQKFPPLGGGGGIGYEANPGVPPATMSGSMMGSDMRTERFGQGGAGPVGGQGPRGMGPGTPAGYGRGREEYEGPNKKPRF

T2: PSF exRRM1 (human, UniProt P23246 266-365)
T2 sequence: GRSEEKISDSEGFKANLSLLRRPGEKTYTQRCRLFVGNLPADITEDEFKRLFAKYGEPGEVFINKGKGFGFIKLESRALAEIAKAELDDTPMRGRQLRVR

T3: PSF exRRM2 (human, UniProt P23246 366-484)
T3 sequence: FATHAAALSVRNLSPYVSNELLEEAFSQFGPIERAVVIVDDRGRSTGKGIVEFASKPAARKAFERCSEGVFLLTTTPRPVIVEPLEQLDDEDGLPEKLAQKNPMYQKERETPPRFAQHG

T4: PSF exRRMs (human, UniProt P23246 266-484)
T4 sequence: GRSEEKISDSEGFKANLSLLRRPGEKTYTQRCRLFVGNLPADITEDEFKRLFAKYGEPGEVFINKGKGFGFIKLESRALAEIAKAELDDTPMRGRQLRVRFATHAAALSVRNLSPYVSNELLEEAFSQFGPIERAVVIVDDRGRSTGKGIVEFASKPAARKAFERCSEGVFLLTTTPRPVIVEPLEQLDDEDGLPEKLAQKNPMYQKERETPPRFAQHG

T5: GST-TRAP266–755 (UniProt Q9Y2W1 266-755)
T5 construct: source: E. coli Rosetta(DE3)pLysS, purified (glutathione sepharose, SEC); not shown: GST, N-terminal, kept
T5 sequence (looked up): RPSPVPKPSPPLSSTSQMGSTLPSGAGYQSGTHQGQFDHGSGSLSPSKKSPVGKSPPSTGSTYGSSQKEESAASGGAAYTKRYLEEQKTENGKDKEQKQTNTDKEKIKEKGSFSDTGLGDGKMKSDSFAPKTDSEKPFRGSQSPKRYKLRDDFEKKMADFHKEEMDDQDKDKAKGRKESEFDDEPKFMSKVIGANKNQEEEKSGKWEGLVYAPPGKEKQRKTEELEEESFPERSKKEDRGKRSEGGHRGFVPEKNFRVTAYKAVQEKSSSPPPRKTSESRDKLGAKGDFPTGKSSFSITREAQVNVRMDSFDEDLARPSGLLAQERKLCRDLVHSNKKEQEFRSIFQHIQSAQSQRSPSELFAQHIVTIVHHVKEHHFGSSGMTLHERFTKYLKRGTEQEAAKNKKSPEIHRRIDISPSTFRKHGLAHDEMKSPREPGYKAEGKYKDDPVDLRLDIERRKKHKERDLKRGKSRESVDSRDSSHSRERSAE

B1: GST-TRAPΔN (TRAP150 266-955) (domain or fragment, UniProt Q9Y2W1 266-955, looked up)
chain: RPSPVPKPSPPLSSTSQMGSTLPSGAGYQSGTHQGQFDHGSGSLSPSKKSPVGKSPPSTGSTYGSSQKEESAASGGAAYTKRYLEEQKTENGKDKEQKQTNTDKEKIKEKGSFSDTGLGDGKMKSDSFAPKTDSEKPFRGSQSPKRYKLRDDFEKKMADFHKEEMDDQDKDKAKGRKESEFDDEPKFMSKVIGANKNQEEEKSGKWEGLVYAPPGKEKQRKTEELEEESFPERSKKEDRGKRSEGGHRGFVPEKNFRVTAYKAVQEKSSSPPPRKTSESRDKLGAKGDFPTGKSSFSITREAQVNVRMDSFDEDLARPSGLLAQERKLCRDLVHSNKKEQEFRSIFQHIQSAQSQRSPSELFAQHIVTIVHHVKEHHFGSSGMTLHERFTKYLKRGTEQEAAKNKKSPEIHRRIDISPSTFRKHGLAHDEMKSPREPGYKAEGKYKDDPVDLRLDIERRKKHKERDLKRGKSRESVDSRDSSHSRERSAEKTEKTHKGSKKQKKHRRARDRSRSSSSSSQSSHSYKAEEYTEETEEREESTTGFDKSRLGTKDFVGPSERGGGRARGTFQFRARGRGWGRGNYSGNNNNNSNNDFQKRNREEEWDPEYTPKSKKYYLHDDREGEGSDKWVSRGRGRGAFPRGRGRFMFRKSSTSPKWAHDKFSGEEGEIEDDESGTENREEKDNIQPTTE
notes: pGEX-6-P1; also called GST-TRAP150ΔN; TRAP150-ΔN; source: E. coli Rosetta(DE3)pLysS, purified (glutathione sepharose, SEC); not shown: GST, N-terminal, kept
B2: SRL-1 (ssRNA)
RNA: AACCAAGAGGUUUCUCGCGUAUUUCUCUCAUUUUUUUACCCAUUUUACAAAUUUUUUUUGCUAUUUGAGCCAUAGUACCCAUUAAUAGGUCUCGUCCAUUCCCUUGUUUUUUUUUUAUUGUUUCAAUUACACUACAUAAUUAAAAAUCACAUCACUUUCACUCUCACCUUAGUCGUUCUUUAUCAACCAAAAAUAAAAAAAUGCUUCAAUCCGUUGUCUU
B3: MKK7 (ssRNA)
RNA: CCUCCUCGUUUAUGAUUUGAUUUCUUUUCUUUUGGACGAAUCGGUCGUUUCUGUUGUGAUUUAUCGUGGUGUUGUUUUUUUCUUCCUUUUCCCCAUCCAG
B4: HisFLAG-PSF exRRMs (266-484) (domain or fragment, UniProt P23246 266-484, looked up)
chain: T4 sequence
notes: also called HisFLAG-exRRMs; HFexRRM1+2; source: E. coli Rosetta(DE3)pLysS, purified (Ni-NTA, SEC); not shown: His6, N-terminal, kept; FLAG, N-terminal, kept
B5: Gb1-tagged TRAP150 686–755 (TRAP-PID) (domain or fragment, UniProt Q9Y2W1 686-755, looked up)
chain: FRKHGLAHDEMKSPREPGYKAEGKYKDDPVDLRLDIERRKKHKERDLKRGKSRESVDSRDSSHSRERSAE
notes: 6xHis + GB1 fusion vector pGβ1; also called Gb1-tagged construct of the TRAP-PID; source: E. coli Rosetta(DE3)pLysS, purified (Ni-NTA, SEC)

Columns and labels:
HisFLAG-PSF full length = molecular target: T1, HisFLAG-PSF full length; test: pull-down; 40 ug GST-tagged bait on glutathione sepharose 4B beads; prey incubated 1.5 h at 4°C in PBS; washes with PBS supplemented with 300 mM NaCl; western blot; settings: both partners purified
PSF exRRM1 = molecular target: T2, PSF exRRM1; test: EMSA; unmeasurable affinity; UV crosslinking: 12 mM Tris pH 7.5, 120 mM NaCl, 3 mM MgCl2, 1 mM ATP, 20 mM phosphocreatine, 0.1 mM EDTA, 12% glycerol, 1.3% PVA, 25 ng/ul yeast tRNA, 20 ng/ul; settings: protein: recombinant; tags: 6xHis-FLAG N-term; label: uniform 32P
PSF exRRM2 = molecular target: T3, PSF exRRM2; test: EMSA; UV crosslinking: 12 mM Tris pH 7.5, 120 mM NaCl, 3 mM MgCl2, 1 mM ATP, 20 mM phosphocreatine, 0.1 mM EDTA, 12% glycerol, 1.3% PVA, 25 ng/ul yeast tRNA, 20 ng/ul; settings: protein: recombinant; tags: 6xHis-FLAG N-term; label: uniform 32P
PSF exRRMs = molecular target: T4, PSF exRRMs; test: as above; settings: protein: recombinant; tags: 6xHis-FLAG N-term; label: uniform 32P
[1] = molecular target: B1; test: pull-down; 40 ug GST-tagged bait on glutathione sepharose 4B beads; prey incubated 1.5 h at 4°C in PBS; washes with PBS supplemented with 300 mM NaCl; western blot; settings: both partners purified
GST-TRAP266–755 = molecular target: T5, GST-TRAP266–755; test: as above; settings: both partners purified
[2] = molecular target: B4; test: pull-down; Gb1-tagged TRAP150 686-755 precipitated with IgG beads; HisFLAG-exRRMs detected; settings: both partners purified

Binder | binding result (PSF exRRM1) | binding result (PSF exRRM2) | binding result (PSF exRRMs) | other results
B1 |  |  |  | binding result (HisFLAG-PSF full length): binds
B2 | no binding | binds | binds | 
B3 | no binding | binds | binds | 
B4 |  |  |  | binding result [1]: binds; binding result (GST-TRAP266–755): binds
B5 |  |  |  | binding result [2]: binds

Source: article PMC4605305, “TRAP150 interacts with the RNA-binding domain of PSF and antagonizes splicing of numerous PSF-target genes in T cells” (Nucleic Acids Research, 2015)
